± gives the standard deviation of the averaged measurements.
Test system: ATP
Assay: switch fluorescence ratio, 500 uM ATP over buffer (Cy3 cluster intensity, sum of 5 cycles each) (fold (ratio)); higher = stronger signal-on switching upon ATP binding; sequences stand for … in TCGTCGGCAGCGTCAGATGTGTATAAGAGACAGTTTTTTTTTTTTTTTTTTTTTTTTT…TC
Details: aptamer strand: ATP DNA aptamer (quencher-CACCTGGGGGAGTATTGCGGAGGAAGG + anchor), 100 nM annealed; ATP concentration: 500 uM
In short: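 Exposure to 500 uM ATP lasted 15 min at 22 °C before imaging, and a selection-buffer image was taken beforehand, for Cy3-labelled switching-strand clusters on a modified Illumina MiSeq flow-cell annealed to 100 nM quencher-labelled ATP aptamer. Five buffer/ATP cycles were run with NaOH stripping and re-annealing between them. The fluorescence ratio per cluster is summed target-cycle over summed buffer-cycle Cy3 intensity, averaged per switch-domain sequence. Clusters outside 100-1000 RFU were excluded.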

Sequence | switch fluorescence ratio
TAAATGGAGG | 0.9891 ± 0.0061
TTAAGGGAAA | 1.02 ± 0.02
ATTATTACGG | 1 ± 0.022
GCCCTGCATG | 1.01 ± 0.052
GGTCCCATCG | 0.985 ± 0.019
GCGATTATAT | 0.969 ± 0.049
TCGACAAAGG | 1.07 ± 0.021
AACCACTCAT | 1.02 ± 0.053
AAATTCAATA | 1.002 ± 0.0033
ATTTGGTATC | 0.997 ± 0.017
AGGTGGTACA | 0.993 ± 0.03
TTATCCTGGT | 0.975 ± 0.011
TTCGTTCGAA | 1.03 ± 0.067
ACTGGGTCCG | 1 ± 0.057
CGGGTGAGCA | 0.996 ± 0.026
ATCCAGTGTC | 1.057 ± 0.0061
TTTTTGGAGC | 1.01 ± 0.016
TTTCATTTAT | 0.986 ± 0.021
GTGGTTGTCG | 0.983 ± 0.015
AGAGCCGCTG | 1.02 ± 0.068
TGCCGTTTGC | 0.965 ± 0.029
TAATCGGGGG | 1.04 ± 0.043
GGGTGGGTCA | 1.01 ± 0.048

Sequence | switch fluorescence ratio
AGCAGTGACT | 1.13 ± 0.036
CGGTAACTGG | 1.01 ± 0.048
AGGGTCTGAG | 1.01 ± 0.026
ACCCTTCTGC | 1.15 ± 0.017
TTACACGTTC | 1.03 ± 0.018
TTTGATCGCT | 1.28 ± 0.46
GGTTAGGATG | 0.97 ± 0.025
ACCGGGGGTA | 0.991 ± 0.024
GGGCCAAGTA | 0.983 ± 0.033
ACGTAGGGTT | 1.08 ± 0.012
GGGACTTCAA | 1 ± 0.039
TATGGAGGAG | 0.981 ± 0.017
TTAATTATCT | 1.01 ± 0.051
GTTGTCAGTA | 0.9836 ± 0.005
GTTATTTTTT | 0.987 ± 0.028
GCTTGTGAGG | 1.02 ± 0.022
GGTTGTATCG | 1 ± 0.05
TCGGGGCCGC | 0.981 ± 0.11
GTGGGGGGGC | 0.989 ± 0.032
TTAATGGTTG | 0.975 ± 0.032
ATTGTATTTG | 1.01 ± 0.034
TTCTGGTTAC | 1.059 ± 0.004
ATTTTCGTTT | 0.945 ± 0.024

Sequence | switch fluorescence ratio
TGCTGTTAAT | 0.9829 ± 0.0089
AGGGAGGGGG | 1.01 ± 0.094
TTTCGGTTAT | 1.02 ± 0.021
CTCGGACCTT | 1.19 ± 0.017
ATATTGGTGG | 0.991 ± 0.042
ATTAGGGGGC | 1.04 ± 0.061
CTTGGGGCTT | 0.985 ± 0.014
AGTCGGGTTC | 0.973 ± 0.032
CGGGTAATGT | 0.978 ± 0.029
AGAATGGTGT | 1.02 ± 0.038
TGGGCATTTT | 0.987 ± 0.025
CCAGATATCA | 0.999 ± 0.054
TATCCCATAC | 1.49 ± 0.073
TTCCATGTGT | 1.06 ± 0.044
GGTTTTTTCT | 1.03 ± 0.088
ACTTTCGATT | 1.09 ± 0.13
AGCGGGGTTC | 1.023 ± 0.0049
CAGTCGTGGA | 0.969 ± 0.016
CGTCCATATG | 1.016 ± 0.0089
AAAGGGTTGA | 0.9559 ± 0.0011
TGGTGGGGCT | 0.994 ± 0.026
GATTAGGTGT | 1.098 ± 0.0067
TCATTGGGGT | 0.957 ± 0.033

Sequence | switch fluorescence ratio
AGGGGGTGCT | 0.997 ± 0.028
ACTTAATCGT | 1.02 ± 0.045
TCATTTCGGC | 0.982 ± 0.032
TTACGTTCCT | 1.5 ± 0.13
TGTAATCCGG | 0.986 ± 0.012
TCGGGGGGCT | 1.06 ± 0.048
GAGTGGGCCT | 0.963 ± 0.044
GGGCGACACG | 1 ± 0.06
TTGGTGGGGT | 1 ± 0.033
TTATGGACCT | 1.331 ± 0.0094
GTCTTTAACT | 0.982 ± 0.059
ATACTTTGGT | 0.9944 ± 0.0018
TTAGTAGAAC | 0.993 ± 0.013
CAGCTACTTG | 1.05 ± 0.025
TGCCTGGGTG | 2.74 ± 1.1
GGTATTTATT | 1.01 ± 0.019
GTTGGTGGCT | 0.9581 ± 0.0026
ATGGTTCCAC | 0.997 ± 0.024
ATAGGGGAGT | 0.993 ± 0.03
TGTGTTTATA | 1.013 ± 0.0095
CCGATGGTCT | 1.25 ± 0.072
GGAAGGAGTC | 0.991 ± 0.019
GCGGGATCCG | 1.06 ± 0.083

Sequence | switch fluorescence ratio
GAGGGCCGGT | 1.03 ± 0.032
TGGGGATGGA | 0.998 ± 0.02
TTTAGAAATC | 1.08 ± 0.16
TTCGGGGGAG | 0.979 ± 0.026
GGTTGGCCGT | 1.03 ± 0.051
TGTAGGGGGC | 1.27 ± 0.39
TTCTACACAG | 1.04 ± 0.032
GAACGTCGGA | 1.028 ± 0.0027
TGAGGTCAGG | 0.982 ± 0.017
GTGTTGTTGC | 0.981 ± 0.0012
ACTACATTGG | 1.033 ± 0.0065
CATAGGTTCT | 0.986 ± 0.023
AAGGTGAAGG | 1.02 ± 0.035
TAGAGTTTGG | 1 ± 0.045
CCACTAGACC | 1.14 ± 0.026
TATAAAGTGG | 1.03 ± 0.022
TATTTTGCGC | 1.02 ± 0.026
TTGAGGGAAT | 0.992 ± 0.033
CTTGTAGGGA | 0.9956 ± 0.0053
AAAATACGTT | 1.23 ± 0.16
AAGTAAGCAG | 0.9636 ± 0.0011
AGGTTAACTA | 1.02 ± 0.024
ATACGGGAAT | 1.05 ± 0.022

Sequence | switch fluorescence ratio
TCAAACGAC | 1.08 ± 0.011
GAAAGTGGTG | 0.9921 ± 0.0055
TTTATTGACT | 1.03 ± 0.013
CAGAGCTTTT | 1.05 ± 0.058
GCCCCCTTCG | 1.08 ± 0.065
TGGAAAAATG | 0.991 ± 0.031
TTTTTGTGCT | 0.996 ± 0.032
AGAGCATAGG | 1.03 ± 0.048
GACCAAGAAT | 1.06 ± 0.03
AATTAAACGA | 1.036 ± 0.0068
CGAGATGGTT | 0.973 ± 0.025
TCAAGGTCCT | 1.127 ± 0.0091
AGGAGGAGGA | 1.07 ± 0.065
CTGACCGGGT | 1.014 ± 0.0015
ACTGATGAAT | 1.06 ± 0.023
TATTGCGGCC | 1.02 ± 0.026
GTTTTTGTAA | 1.02 ± 0.052
GCAAGGGTGT | 1.153 ± 0.0013
TTGGGACTTA | 1.01 ± 0.03
TTCTGTGGCG | 1 ± 0.069
AATTTGAGGA | 0.972 ± 0.02
TGATTTTTCT | 1 ± 0.013
TTTATTTTGT | 1 ± 0.038

Sequence | switch fluorescence ratio
ATGTTAAAGG | 0.998 ± 0.016
TATCGGCAAT | 4.42 ± 0.76
AGGAATGGTC | 1.02 ± 0.051
AAATGTATGT | 0.988 ± 0.037
TGGAGGGGGG | 0.997 ± 0.086
CTAGGGGACG | 1.03 ± 0.032
TGAAGGGGGA | 0.995 ± 0.041
TTTTGGCGTC | 0.994 ± 0.023
TTGTTTATTT | 1.02 ± 0.032
AGGCAAAGCA | 1.05 ± 0.073
AAGAAGATCA | 0.975 ± 0.016
TTGGAAGGGT | 1.01 ± 0.031
CACGTATTGG | 1.11 ± 0.017
GGGACCTTTG | 0.994 ± 0.01
GGGTCAAGTC | 0.968 ± 0.04
CCTGGAGAGT | 1.02 ± 0.059
TCTAACATGC | 1.15 ± 0.12
CACAGGGAGT | 1.03 ± 0.021
AGAATATTCT | 0.98 ± 0.014
